Assay results taken from paper PMC9953004, “Scandium-44 Radiolabeled Peptide and Peptidomimetic Conjugates Targeting Neuropilin-1 Co-Receptor as Potential Tools for Cancer Diagnosis and Anti-Angiogenic Therapy” (Biomedicines, 2023).

Target: Recombinant human NRP-1 (neuropilin-1 co-receptor) (human) (UniProt O14786)
Assay: ELISA; competitive; recombinant human NRP-1 coated on a 96-well plate (200 ng/well, overnight, 4 °C), blocked with 0.5% BSA in PBS; 50 µL compound in PBS (100, 50, 25, 12.5, 6.75 µM) plus 50 µL (400 ng/mL) human (bt)-VEGF-A165 in PBS with 4 µg/mL heparin; 2 h at room temperature; streptavidin-HRP, chemiluminescence; IC50 by nonlinear regression, mean ± SD of three experiments

Chain of Recombinant human NRP-1 (neuropilin-1 co-receptor) (human) (O14786 22-856): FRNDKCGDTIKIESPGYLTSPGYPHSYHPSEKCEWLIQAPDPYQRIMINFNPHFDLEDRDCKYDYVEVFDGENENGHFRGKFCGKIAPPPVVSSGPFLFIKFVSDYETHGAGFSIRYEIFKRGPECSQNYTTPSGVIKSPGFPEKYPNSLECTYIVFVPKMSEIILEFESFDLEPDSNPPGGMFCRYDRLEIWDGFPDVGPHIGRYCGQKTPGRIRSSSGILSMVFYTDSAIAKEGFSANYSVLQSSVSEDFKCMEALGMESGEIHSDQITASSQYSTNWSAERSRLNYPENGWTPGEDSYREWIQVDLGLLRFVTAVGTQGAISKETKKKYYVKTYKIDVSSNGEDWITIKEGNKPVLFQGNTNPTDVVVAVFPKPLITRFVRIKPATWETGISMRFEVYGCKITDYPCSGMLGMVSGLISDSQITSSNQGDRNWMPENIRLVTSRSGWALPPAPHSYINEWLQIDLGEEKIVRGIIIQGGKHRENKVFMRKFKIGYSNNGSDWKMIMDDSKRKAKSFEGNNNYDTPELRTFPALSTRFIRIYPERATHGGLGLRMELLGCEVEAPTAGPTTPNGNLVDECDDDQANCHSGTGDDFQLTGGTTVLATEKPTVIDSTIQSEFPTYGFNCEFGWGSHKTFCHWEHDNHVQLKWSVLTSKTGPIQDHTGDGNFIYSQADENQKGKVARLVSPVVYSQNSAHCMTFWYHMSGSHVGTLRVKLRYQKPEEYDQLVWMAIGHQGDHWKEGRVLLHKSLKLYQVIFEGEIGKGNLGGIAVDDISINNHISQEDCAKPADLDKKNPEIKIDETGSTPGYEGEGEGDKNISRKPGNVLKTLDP

IC50 | Substance
> 100 µM | ^DR7A-^DLys(DOTA-Sc) (peptide)
> 100 µM | ^DR7A-^DLys(DOTA-Ga) (peptide)
